For 6 substances, kon and Kd results are on record in PMC7293033.

For assay [1], the target named is His-API5 (apoptosis inhibitor 5, residues 1-504, isoform 2), wild type. Kind of assay: SPR. As to conditions: concentration series 0.13, 0.25, 0.50, 1.0, 2.0, 4.0, 8.0, 16 µM.
The target in assay [2] is His-FGF2, LMW FGF2 (residues 135-288, C211S/C229S) (UniProt P09038). Nature of the assay: SPR. Conditions: concentration series 0.031, 0.063, 0.13, 0.25, 0.50, 1.0, 2.0, 4.0, 8.0, 16 µM.
For assay [3], the target named is His-API5 3Mut (E184A/D185A/E190A) (human). Kind of assay: SPR; purified recombinant His-API5 and His-FGF2; who was immobilised is not given in the source. For orientation: SPR reads the build-up and loss of mass on a sensor chip optically.
Assay [4] has as its target His-API5 (apoptosis inhibitor 5, residues 1-504, isoform 2), wild type (human). The assay is described as above.
Another assay concerns the target GST-UAP56 (human) (UniProt Q13838). Nature of the assay: SPR; UAP56 with API5, FGF2, the API5–FGF2 complex or PBK as analyte proteins; purified recombinant proteins.

GST-UAP56 (human), sequence (Q13838 whole entry): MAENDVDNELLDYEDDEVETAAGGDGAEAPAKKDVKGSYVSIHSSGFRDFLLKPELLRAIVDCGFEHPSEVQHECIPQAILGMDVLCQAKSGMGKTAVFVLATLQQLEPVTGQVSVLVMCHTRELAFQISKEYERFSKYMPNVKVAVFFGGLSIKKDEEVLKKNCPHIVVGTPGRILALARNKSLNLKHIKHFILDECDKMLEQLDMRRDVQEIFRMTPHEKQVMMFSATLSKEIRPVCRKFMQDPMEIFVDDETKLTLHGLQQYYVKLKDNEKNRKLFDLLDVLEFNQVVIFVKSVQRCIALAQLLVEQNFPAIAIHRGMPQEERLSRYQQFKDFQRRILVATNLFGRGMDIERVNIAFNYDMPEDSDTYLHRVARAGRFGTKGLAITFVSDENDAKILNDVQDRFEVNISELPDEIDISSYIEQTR
His-FGF2, LMW FGF2 (residues 135-288, C211S/C229S), sequence (P09038 135-288 C211S/C229S): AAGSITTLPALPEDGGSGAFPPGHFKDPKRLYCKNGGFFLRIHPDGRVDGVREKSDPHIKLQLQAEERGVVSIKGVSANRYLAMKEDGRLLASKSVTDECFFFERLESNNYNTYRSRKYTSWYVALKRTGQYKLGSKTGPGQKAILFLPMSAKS

As for “His-FGF2, LMW FGF2 (residues 135-288, C211S/C229S) (from UniProt P09038) R262A; T263A; K271A”, the kon in assay [1] was 1660 M⁻¹ s⁻¹.

In assay [2], “His-API5 (apoptosis inhibitor 5, residues 1-504, isoform 2), wild type E184A; D185A; E190A” showed a kon of 2260 M⁻¹ s⁻¹.

For “His-FGF2, LMW FGF2 (residues 135-288, C211S/C229S) (from UniProt P09038 135-288) (natural protein)”, the Kd in assay [3] worked out at 4200 nM; in assay [4] it was 676 nM.

Take “His-API5 (apoptosis inhibitor 5, residues 1-504, isoform 2), wild type (natural protein)”: the Kd in the assay with GST-UAP56 (human) was 1370 nM.

In the case of “His-FGF2 Mut (C211S/C229S/R262A/T263A/K271A) (from UniProt P09038 135-288) (natural protein)”, the Kd is 17300 nM in assay [3] and 1510 nM in assay [4].

“API5–FGF2 complex (His-API5 with His-LMW FGF2) (from UniProt P09038 135-288)”: in the assay with GST-UAP56 (human), the Kd was found to be 199 nM.

The term kon denotes a measure of how fast the partners come together. Low values mean slower complex formation, high ones faster complex formation. Usually Kd stands for a measure of binding affinity in units of concentration.
